Test results reported in patent US20210380714A1.

Assays:
[1] = target: native human MSLN expressed on the cell surface (N87 / NCI-N87 tumor cells) (human) (UniProt Q13421); test: KinExA, native hu MSLN on cells
[2] = target: recombinant human soluble MSLN (rHuMSLN sol.) (human) (UniProt Q13421); test: Biacore, soluble human MSLN
[3] = target: recombinant human soluble MSLN (rHuMSLN sol.) (human) (UniProt Q13421); test: published value quoted in the Biacore column; the sheet does not name its source

Chain of recombinant human soluble MSLN (rHuMSLN sol.) (human) (Q13421 296-606 limits assumed): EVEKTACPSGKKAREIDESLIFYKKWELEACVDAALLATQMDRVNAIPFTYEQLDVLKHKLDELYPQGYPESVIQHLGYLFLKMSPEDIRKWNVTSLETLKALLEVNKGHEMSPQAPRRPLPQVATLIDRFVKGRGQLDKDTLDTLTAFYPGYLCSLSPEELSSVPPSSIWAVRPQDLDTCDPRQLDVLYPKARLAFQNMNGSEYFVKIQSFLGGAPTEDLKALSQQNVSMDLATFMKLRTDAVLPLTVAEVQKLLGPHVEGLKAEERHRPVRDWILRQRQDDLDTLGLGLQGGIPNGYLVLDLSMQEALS
Chain of native human MSLN expressed on the cell surface (N87 / NCI-N87 tumor cells) (human) (Q13421 296-606 limits assumed): as above

## MORAb-009 (antibody)
[1]
  Kd: 0.0022 nM
[2]
  Kd: 0.16 nM
[3]
  Kd: 1.5 nM
